In test [1] the target is T1, human CD163 wt (Homo sapiens, UniProt Q86VB7).
T1 construct: a pcDNA5-FRT-humanCD163 plasmid harboring the full length human CD163 cDNA; expressed in transfected cells; host or cells: HEK 293, transient
Description: Western blotting of human CD163 and knock out mutants. Type of test: binding. The method, then:
Each cell pellet was added 1 ml lysis buffer (10 mM Tris pH 8, 140 mM NaCl, 15 mM MgSO4, 1% Triton X-100) and incubated for 15 min at 4 °C with rotation. After centrifugation for 30 min at 6000 rpm the supernatants were sterile filtered.
90 μl of each of the supernatants were added 30 μl of 4×LDS sample buffer. 3×20 μl samples of each supernatant and 8 μl SeeBlue plus2 prestained marker were loaded on NuPage 4-12% Bis-Tris-Gels (Invitrogen, Taastrup, Denmark) and the SDS-PAGEs were run with MOPS running buffer according to instructions of the manufacturer (200 V constant for 50 min). Blotting to PVDF membranes (Invitrogen, Taastrup, Denmark) was done on an iBLOT device according to instructions of the manufacturer. After blotting the membranes were washed briefly in 1×PBS 0.1% Tween and blocked for 30 min in 1×PBS 2% Tween at room temperature with shaking. After blocking the membranes were washed 3×5 min in 1×PBS 0.1% Tween and incubated 1 hour with: (1) 10 ml 1 μg/ml polyclonal rabbit anti-human CD163; (2) 10 ml 1 μg/ml Mac2-158; (3) 10 ml 1:500 KN2/NRY-HRP all diluted in 1×PBS 0.1% Tween. The membranes were washed with 3×5 min 1×PBS 0.1% Tween again and incubated with: (1) 10 ml Goat anti-rabbit-HRP 1:1000 (AbD Serotec, Oxford, UK); or (2) 10 ml Goat anti-mouse-HRP 1:1000 (Dako, Glostrup, Denmark) for 1 hour. […]
In general terms: In western blotting, separated proteins are transferred to a membrane and probed.

Test [2] concerns the target T2, CD163 on peripheral blood monocytes (Homo sapiens, UniProt Q86VB7).
T2 construct: Freshly drawn peripheral whole blood samples or PBMC; endogenous in cells; host or cells: human peripheral blood monocytes, blood dendritic cells, monocyte-derived macrophages (healthy donors, buffy coats)
As to the kind of experiment: Quantitative flow cytometry of monocyte surface CD163 expression using different anti-CD163 mAb clones. In kind it is cell-based. The method, then: EDTA, citrate, and heparin stabilized peripheral blood samples were obtained by standard venipuncture from healthy donors in Venoject® vacutainers (Terumo Europe NV, Leuven, Belgium). Peripheral blood mononuclear cells (PBMC) were isolated from leukocyte-rich buffy coats by gradient separation centrifugation using Accuspin System Histopaque®—1077 (Sigma-Aldrich Denmark A/S, Broendby, Denmark). Buffy coats were prepared from units of whole blood (approximately 472 ml) anti-coagulated with CPD-A (Baxter, Munich, Germany) donated by healthy volunteers. Approval for the study was obtained from the regional ethical committee (j.nr. 20040068).
Freshly drawn peripheral whole blood samples or PBMC (approx. 3×10^6 cells) were stained with isotype-matched control antibody or a relevant antibody for one hour at 4° C. in the dark. When staining whole blood, erythrocytes were lysed for 15 min with 4° C. cold solution of ammonium chloride. When indirect immunofluoresence staining was required, cells were initially incubated with unconjugated primary CD163 antibody for one hour at 4° C., washed three times with D-PBS, pH 7.4, followed by incubation with goat anti-mouse-conjugated Alexa-Fluor® 488 (1:200 dilution; Molecular Probes, Invitrogen, Carlsbad, Calif., USA) for one hour at 4° C. in the dark. The stained cells were washed twice three D-PBS, pH 7.4, re-suspended in 400 μl FACSflow (Becton Dickinson, San Jose, Calif., USA), and kept on ice until analysis. All samples were analyzed using a FACSCalibur flow cytometer and compensated for spectral overlap using FlowJo for Macintosh software version 8.3 (TreeStar, San Carlos, Calif.). For CD163 density quantitation, flow cytometric estimation of antibodies bound/cell (ABCs) was performed using Quantibrite PE beads (Becton Dickinson, San Jose, Calif., USA) as recommended by the manufacturer. After the cells were stained, as detailed, a set of 4 pre-calibrated fluorescently labeled beads was used for standardization before the samples were acquired. The Quantibrite PE beads were run at the same instrument settings as the assay, and the linear regression obtained using the Quantibrite PE beads was used to convert the FL2 linear fluorescence staining of cell population into the number of (CD163) PE molecules bound per cell (ABC).

[3] abbreviates: PBMC isolated by density gradient centrifugation.
The mark [4] stands for this setting: Table 2, second column pair, head prints CITRATE.
The mark [5] stands for this setting: anticoagulant CITRATE, whole blood (Table 1, FIG. 2-3).
Where [6] appears, read: anticoagulant EDTA, whole blood (Table 1, FIG. 2-3).
Setting [7] is: anticoagulant HEPARIN, whole blood (Table 1, FIG. 2-3).
[8] abbreviates: freshly drawn EDTA stabilized whole blood, FIG. 1.

“And” between values parts separate entries of the source, which are not always exact repeats. Identical values can stand only once.

T2 sequence (Q86VB7 42-1156): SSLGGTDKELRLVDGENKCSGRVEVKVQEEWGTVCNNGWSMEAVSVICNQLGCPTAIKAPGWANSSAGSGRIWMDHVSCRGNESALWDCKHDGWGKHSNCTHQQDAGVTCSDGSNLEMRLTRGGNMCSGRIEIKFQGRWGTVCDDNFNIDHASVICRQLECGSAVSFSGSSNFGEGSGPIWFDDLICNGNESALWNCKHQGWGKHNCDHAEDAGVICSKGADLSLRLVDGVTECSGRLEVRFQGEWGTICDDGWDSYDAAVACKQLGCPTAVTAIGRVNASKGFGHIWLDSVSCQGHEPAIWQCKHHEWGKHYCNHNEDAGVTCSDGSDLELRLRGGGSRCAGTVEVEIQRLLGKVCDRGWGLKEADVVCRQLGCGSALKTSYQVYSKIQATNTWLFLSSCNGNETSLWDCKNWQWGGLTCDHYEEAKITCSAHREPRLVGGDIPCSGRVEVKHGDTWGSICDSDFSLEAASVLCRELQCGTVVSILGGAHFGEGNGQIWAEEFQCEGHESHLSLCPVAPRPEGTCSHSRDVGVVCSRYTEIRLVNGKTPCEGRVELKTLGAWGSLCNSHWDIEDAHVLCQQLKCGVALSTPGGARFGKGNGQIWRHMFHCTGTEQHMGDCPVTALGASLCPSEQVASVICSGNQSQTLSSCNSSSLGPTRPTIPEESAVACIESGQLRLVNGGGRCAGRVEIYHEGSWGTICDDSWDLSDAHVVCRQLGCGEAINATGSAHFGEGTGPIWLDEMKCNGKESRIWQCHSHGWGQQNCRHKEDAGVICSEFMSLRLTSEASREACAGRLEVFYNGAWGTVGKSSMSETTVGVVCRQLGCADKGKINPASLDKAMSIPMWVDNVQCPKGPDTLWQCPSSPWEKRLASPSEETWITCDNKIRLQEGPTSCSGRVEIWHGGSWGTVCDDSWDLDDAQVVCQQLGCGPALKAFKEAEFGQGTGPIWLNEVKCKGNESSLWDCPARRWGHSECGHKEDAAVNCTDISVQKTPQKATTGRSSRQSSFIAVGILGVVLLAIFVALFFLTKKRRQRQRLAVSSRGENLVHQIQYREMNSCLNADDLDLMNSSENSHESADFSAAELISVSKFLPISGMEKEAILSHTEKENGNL
T1 sequence (Q86VB7 42-1156): as above

B1: MAC2-158: anti-human CD163 murine mAb, binds SRCR domain 1, IQ Products; VH SEQ ID NO: 1, VL SEQ ID NO: 2 (antibody, V domains shown)
VH: DVQLQESGPGLVKPSQSLSLTCTVTGYSITSDYAWNWIRQFPGNKLEWMGYITYSGITNYNPSLKSQISITRDTSKNQFFLQLNSVTTEDTATYYCVSGTYYFDYWGQGTTLTVSS
VL: SVVMTQTPKSLLISIGDRVTITCKASQSVSSDVAWFQQKPGQSPKPLIYYASNRYTGVPDRFTGSGYGTDFTFTISSVQAEDLAVYFCGQDYTSPRTFGGGTKLEIKRA
modifications: Mac2-158 VH; Mac2-158 VL
For the molecule B1, in test [1], the “binding in western blot” value is “bound”. The figures for the “density of CD163 receptors per monocyte” value in test [2] (setting [3]) and in test [2] (setting [8]) were 11,417 and 17,725, respectively. Further, the “fraction of CD14+ monocytes stained for CD163” value in test [2] (setting [3]) was found to be 81.10%. Besides, the “% CD163+ monocytes” value in test [2] (Table 2, first column pair, head prints EDTA) is 84.48%; in test [2] (setting [4]), 87.23%; in test [2] (Table 2, third column pair, head prints HEPARIN), 83.97%; in test [2] (setting [5]) it was 83.97% and 81.97%; in test [2] (setting [6]), 87.23% and 82.23%; in test [2] (setting [7]), 84.43%. Besides, the figures for the CD163 density on monocytes in test [2] (setting [4]), in test [2] (setting [5]) and in test [2] (setting [6]) were 17700 receptors/monocyte, 17.726 and 17.725, respectively. The molecule also returned a CD163 density monocytes in test [2] (setting [7]) of 28.029. The “fraction of peripheral blood monocytes (CD14+) recognized” value in test [2] (setting [8]) was 84.06%. In addition, the “proportion of circulating CD163 expressing monocytes identified” value in test [2] (summary statement) was greater than 80%.
